Data published in paper PMC5846801, “Disease Variants of FGFR3 Reveal Molecular Basis for the Recognition and Additional Roles for Cdc37 in Hsp90 Chaperone System” (Structure(London, England:1993), 2018).
Numbering of substitutions follows the chain as printed. In names and notes the source's numbering stands.

B1: non-phosphorylated Cdc37 (natural protein)
chain: MVDYSVWDHIEVSDDEDETHPNIDTASLFRWRHQARVERMEQFQKEKEELDRGCRECKRKVAECQRKLKELEVAEGGKAELERLQAEAQQLRKEERSWEQKLEEMRKKEKSMPWNVDTLSKDGFSKSMVNTKPEKTEEDSEEVREQKHKTFVEKYEKQIKHFGMLRRWDDSQKYLSDNVHLVCEETANYLVIWCIDLEVEEKCALMEQVAHQTIVMQFILELAKSLKVDPRACFRQFFTKIKTADRQYMEGFNDELEAFKERVRGRAKLRIEKAMKEYEEEERKKRLGPGGLDPVEVYESLPEELQKCFDVKDVQMLQDAISKMDPTDAKYHMQRCIDSGLWVPNSKASEAKEGEEAGPGDPLLEAVPKTGDEKDVSV
notes: human Hsp90 co-chaperone Cdc37, expressed from pET28 (gift of C. Vaughan; Vaughan et al., 2006), not phosphorylated; Used in ITC and in the auto-phosphorylation assay and in the comparison with the phosphorylated form; No tag removal step is described; also called CDC37^Apo; Cdc37^Apo; source: E. coli C41 (DE3), purified (HisTrap, HiTrap Q, Superdex 200)
B2: FGFR3 kinase domain variant E466K (domain or fragment)
chain: SELELPADPKWKLSRARLTLGKPLGEGCFGQVVMAEAIGIDKDRAAKPVTVAVKMLKDDATDKDLSDLVSEMEMMKMIGKHKNIINLLGACTQGGPLYVLVEYAAKGNLREFLRARRPPGLDYSFDTCKPPEEQLTFKDLVSCAYQVARGMEYLASQKCIHRDLAARNVLVTEDNVMKIADFGLARDVHNLDYYKKTTNGRLPVKWMAPEALFDRVYTHQSDVWSFGVLLWEIFTLGGSPYPGIPVEELFKLLKEGHRMDKPANCTHDLYMIMRECWHAAPSQRPTFKQLVEDLDRVLTVTSTDEYLDLSAPFE
notes: FGFR3 kinase domain, amino acids 455-768 of human FGFR3, disease-linked (cancer) mutation E466K; also called FGFR3^E466K; source: E. coli C41 (DE3), co-expressed with lambda phosphatase, purified (HisTrap, HiTrap Q, Superdex 200)
B3: FGFR3 kinase domain variant N540K (domain or fragment)
chain: B2 chain with K12E, N86K
notes: FGFR3 kinase domain, amino acids 455-768 of human FGFR3, disease-linked mutation N540K; pJ821 construct; also called FGFR3^N540K; source: E. coli C41 (DE3), co-expressed with lambda phosphatase, purified (HisTrap, HiTrap Q, Superdex 200); not shown: His-SUMO, N-terminal, cleaved
B4: FGFR3 kinase domain variant I538F (domain or fragment)
chain: B2 chain with K12E, I84F
notes: FGFR3 kinase domain, amino acids 455-768 of human FGFR3, disease-linked (cancer) mutation I538F; pJ821 construct; 15N labelled for NMR; also called FGFR3^I538F; GFR3^I538F; source: E. coli C41 (DE3), co-expressed with lambda phosphatase, purified (HisTrap, HiTrap Q, Superdex 200); not shown: His-SUMO, N-terminal, cleaved

Legend:
Details in all cases: both partners purified
[1] = target: B4; experiment: ITC; kinase domain in the cell (FGFR3 WT 19.4 μM, FGFR3 I538F 16.9 μM), Cdc37 Apo 211.7 μM in the syringe; 25 mM Tris.Cl, 50 mM NaCl, 5 mM MgCl2, 0.1 mM TCEP, pH 7.5, 20 °C; single site model
Hsp90α = target: T1, Hsp90α (human, UniProt P07900 1-732); experiment: SEC; ternary mixture: 15 μM kinase, 15 μM Cdc37, 30 μM Hsp90α (1:1:2), 15 min at 4 °C; Superdex 200 Increase, 25 mM Tris.Cl, 150 mM NaCl, 1 mM TCEP, pH 8.0, 4 °C; fractions by SDS-PAGE and ELISA
T1 construct: human Hsp90α, expressed from pRSET (gift of C. Vaughan; Vaughan et al., 2006); Used at a 2:1:1 ratio to Cdc37 and kinase; source: E. coli C41 (DE3), purified (HisTrap, HiTrap Q, Superdex 200)

non-phosphorylated Cdc37 = target: B1; experiment: ITC; kinase domain in the cell (FGFR3 WT 19.4 μM, FGFR3 I538F 16.9 μM), Cdc37 Apo 211.7 μM in the syringe; 25 mM Tris.Cl, 50 mM NaCl, 5 mM MgCl2, 0.1 mM TCEP, pH 7.5, 20 °C; single site model

Row | stoichiometry N [1] | binding result (Hsp90α) | Kd (non-phosphorylated Cdc37) [nM] | Binder
1 | 1 | – | – | B1
2 | – | binds | – | B2
3 | – | binds | – | B3
4 | – | binds | 1800 | B4
